The results in this text go back to patent US12365732 (23ANDME, dated 2025).

The labels stand for the following.
T1: hu-CD96 (soluble, isoform 2 extracellular domain) (human, UniProt P40200 22-516, biotinylated in Octet and blocking ELISA)
T1 construct: the assays name only hu-CD96; also called hCD96; biotinylated hu-CD96
T1 sequence: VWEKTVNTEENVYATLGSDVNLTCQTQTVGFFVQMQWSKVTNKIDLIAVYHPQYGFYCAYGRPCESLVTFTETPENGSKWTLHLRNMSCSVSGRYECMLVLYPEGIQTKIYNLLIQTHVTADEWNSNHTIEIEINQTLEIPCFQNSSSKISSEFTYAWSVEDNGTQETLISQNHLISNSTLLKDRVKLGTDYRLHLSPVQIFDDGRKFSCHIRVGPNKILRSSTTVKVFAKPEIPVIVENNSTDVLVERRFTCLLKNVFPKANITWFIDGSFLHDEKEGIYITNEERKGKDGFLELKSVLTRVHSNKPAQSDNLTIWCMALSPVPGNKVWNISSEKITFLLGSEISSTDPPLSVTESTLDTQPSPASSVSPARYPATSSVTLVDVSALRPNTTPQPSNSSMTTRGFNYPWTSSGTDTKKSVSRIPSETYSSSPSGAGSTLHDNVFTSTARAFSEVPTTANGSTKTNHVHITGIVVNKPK

T2: cy-CD96 (soluble, extracellular domain) (cynomolgus monkey, UniProt P40200 22-516 (human entry), biotinylated in Octet and blocking ELISA)
T2 construct: the assays name only cy-CD96; also called biotinylated cy-CD96
T2 chain: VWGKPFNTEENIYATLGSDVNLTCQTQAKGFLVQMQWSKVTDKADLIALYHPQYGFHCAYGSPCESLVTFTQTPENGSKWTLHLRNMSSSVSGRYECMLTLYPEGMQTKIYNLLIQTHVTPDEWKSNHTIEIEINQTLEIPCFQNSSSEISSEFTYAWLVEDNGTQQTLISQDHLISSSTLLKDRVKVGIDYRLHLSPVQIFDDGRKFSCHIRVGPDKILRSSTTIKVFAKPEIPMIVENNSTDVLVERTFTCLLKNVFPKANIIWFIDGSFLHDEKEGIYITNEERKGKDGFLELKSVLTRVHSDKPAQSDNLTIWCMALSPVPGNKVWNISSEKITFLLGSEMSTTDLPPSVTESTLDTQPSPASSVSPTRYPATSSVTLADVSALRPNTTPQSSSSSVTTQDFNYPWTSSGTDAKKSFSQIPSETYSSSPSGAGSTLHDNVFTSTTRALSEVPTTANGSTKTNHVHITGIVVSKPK

B1: mAb1.v7.6 Fab (Fab, V domains shown)
VH: EVQLVQSGAEVKKPGASVKVSCKASGFTFTNRWMHWVRQAPGQGLEWIGMIHVNSGITNINEKFKNRVTMTTDTSTSTAYMELRSLRSEDTAVYYCRSDGLYEGYFDYWGQGTLVTVSS
VL: DIQLTQSPSSLSASVGDRVTITCKASQNVGTAIVWYQQKPGKAPKVLIYSASTRYTGVPSRFSGSGSGTDFTLTISSLQPEDFATYYCQQYSSSPLTFGQGTKVEIK
notes: also called N32R/P52aV/T97L
B2: mAb1.v7.15 Fab (Fab, V domains shown)
VH: B1 VH with R32N, M34D, V53P, N54M, L101F
VL: B1 VL
notes: also called M34D/N53M/T97F
B3: mAb1.v7.59 Fab (Fab, V domains shown)
VH: B1 VH with R32N, M34N, V53P, N59A, S98L, L101T
VL: B1 VL
notes: also called M34N//N58A/S94L
B4: mAb1.v7.11 Fab (Fab, V domains shown)
VH: B1 VH with R32N, W33F, V53P, I57G, G100E, L101T
VL: B1 VL
notes: Fab with 8xHis tag
B5: mAb1.v7.24 Fab (Fab, V domains shown)
VH: B1 VH with R32N, M34G, V53R, L101I
VL: B1 VL
notes: also called M34G/P52aR/T97
B6: mAb1.v7.50 Fab (Fab, V domains shown)
VH: B1 VH with R32N, M34S, V53R, L101V
VL: B1 VL
notes: also called M34S/P52aR/T97V
B7: mAb1.v7.21 Fab (Fab, V domains shown)
VH: B1 VH with R32Y, V53P, I60M, L101V
VL: B1 VL
notes: also called N32Y/I59M/T97V
B8: mAb1.v7.10 Fab (Fab, V domains shown)
VH: B1 VH with R32N, M34R, V53P, N54L, L101V
VL: B1 VL
notes: also called M34R/N53L/T97V
B9: mAb1.v7.8 Fab (Fab, V domains shown)
VH: B1 VH with R32N, M34D, V53P, N54L, L101V
VL: B1 VL
notes: also called M34D/N53L/T97V
B10: mAb1.v7.19 Fab (Fab, V domains shown)
VH: B1 VH with R32S, V53P, I60R, L101I
VL: B1 VL
notes: also called N32S/I59R/T97I
B11: mAb1.v7.14 Fab (Fab, V domains shown)
VH: B1 VH with T30V, R32N, V53P, I60T, L101I
VL: B1 VL
notes: also called T30V/I59T/T97I
B12: mAb1.v7.NGS4 Fab (Fab, V domains shown)
VH: B1 VH with R32N, V53P, E62H, L101T
VL: B1 VL
notes: also called E61H
B13: mAb1.v7.NGS1 Fab (Fab, V domains shown)
VH: B1 VH with R32N, W33F, V53P, L101T
VL: B1 VL
notes: also called W33F
B14: mAb1.v7.NGS5 Fab (Fab, V domains shown)
VH: B1 VH with R32N, V53P, E62R, L101T
VL: B1 VL
notes: also called E61R
B15: mAb1.v7.NGS2 Fab (Fab, V domains shown)
VH: B1 VH with R32N, M50F, V53P, L101T
VL: B1 VL
notes: also called M50F
B16: mAb1.v7.NGS3 Fab (Fab, V domains shown)
VH: B1 VH with R32N, V53A, L101T
VL: B1 VL
notes: also called P52aA
B17: mAb1.v7.NGS6 Fab (Fab, V domains shown)
VH: B1 VH with R32N, V53P, L101I
VL: B1 VL
notes: Fab with 8xHis tag; also called T97I

Numbering of substitutions follows the chain as printed. In names and notes the source's numbering stands.

One test has as its target T1, hu-CD96 (soluble, isoform 2 …). The test is described as follows: BLI (Octet), biotin-CD96 on SA, Fab analyte. The procedure:
(§1) The binding affinity of the generated Fab variants of mAb1.v7 for hu-CD96 and cy-CD96 was determined by OCTET (Pall ForteBio) Bio-Layer Interferometry (BLI) binding analysis. The biotinylated hu-CD96 or biotinylated cy-CD96 was diluted to a final concentration 10 µg/mL in experimental buffer (PBS buffer with 0.01% Tween-20) and immobilized on the Streptavidin Capture (SA) biosensors (Pall ForteBio). Three-fold serial dilutions of the mAb1.v7 Fab variants starting at 1 µM as analytes were diluted in the experimental buffer (PBS buffer with 0.01% Tween-20). The biosensors were equilibrated in experimental buffer at 30° C. for ten minutes prior to starting the experiment. The kinetics experiment was performed with the following steps, where the step name, solution and time are listed: Baseline (buffer—60 seconds), Loading (biotinylated antigen—200 seconds), Baseline 2 (buffer—minimum 120 seconds), Association (analyte—200-300 seconds) and Dissociation (buffer—1000 seconds). The resulting BLI signal from analyte association and dissociation from the […] was analyzed using the Octet Data Analysis software (Pall ForteBio). First a reference subtraction was performed on all recorded traces using the reference well (biosensor that underwent same steps as experimental wells but no analyte for the Association step) and then all the traces were aligned to the beginning of the Association step. The entirety of the Association and Dissociation steps were used in a Global fit (minimum of four analyte concentration traces) in a 1:1 binding model to calculate the K_D values for the 16 selected individual mAb1.v7 Fab variants as summarized in Table 9 (below).
Background: In BLI a coated tip is dipped into the sample, and binding shifts an interference pattern.
Consider B1, for which the dissociation constant Kd stood at 28.4 nM.
Still for that read-out and setting: with B2 the figure was 3 nM; with B3, around 0.1 nM; with B4, 156 nM.
The molecule B5 came in with a dissociation constant Kd of 0.31 nM.
Still for that read-out and setting: with B6 the figure was 4.16 nM.
The same measure, in the same setting: as for B7, the figure is 0.31 nM.
For the molecule B8, the Kd was determined as 2.71 nM.
Still for that read-out and setting: with B9 the figure was 27 nM.
Still for that read-out and setting: as for B10, the figure is 0.63 nM; as for B11, around 0.1 nM.

In the next test the target is T2, cy-CD96 (soluble, extracellular domain). Kind of test: BLI (Octet), biotin-CD96 on SA, Fab analyte. Here is the method: as §1
In turn, B1 registered a Kd of 284 nM. That is a sub-micromolar value.
Still for that read-out and setting: with B2 the figure was 160 nM; with B3, 271 nM.
Still for that read-out and setting: with B4 the figure was 175 nM.
Still for that read-out and setting: with B5 the figure was 118 nM; with B6, 183 nM.
Consider B7, for which the dissociation constant (Kd) came to 118 nM.
On the same count and under the same terms, as for B8, the figure is 117 nM; as for B9, 104 nM; as for B10, 261 nM.
Consider B11, for which the affinity, expressed as Kd, was 530 nM.

In a further test the target is T1, hu-CD96 (soluble, isoform 2 …). Kind of test: BLI (Octet), biotin-CD96 on SA, Fab analyte. This is another data set of the same source.
B12 came in with a dissociation constant Kd of 31.5 nM.
Still for that read-out and setting: with B13 the figure was 49 nM; with B14, 43.6 nM; with B15, 63 nM.
Still for that read-out and setting: as for B16, the figure is 0.1 nM; as for B17, 5.32 nM.

Another test has as its target T2, cy-CD96 (soluble, extracellular domain). The test is described as follows: BLI (Octet), biotin-CD96 on SA, Fab analyte. The source holds these as a separate data set.
B12 displayed a dissociation constant (Kd) of 739 nM.
Still for that read-out and setting: with B13 the figure was 271 nM.
Same read-out and setting: as for B14, the figure is 85 nM; as for B15, around 100 nM; as for B16, around 1000 nM.
Still for that read-out and setting: as for B17, the figure is 289 nM.

In another test the target is T1, hu-CD96 (soluble, isoform 2 …). The test is described as follows: phage competition ELISA, soluble CD96 vs coated hu-CD96. Here is the method:
(§2) 192 colonies from most stringent selections (biotinylated 0.1 nM of hu-CD96 or cy-CD96 with 1000× non-biotinylated human or cy-CD96) were grown in 400 µL 2YT with 4 µL helper phage M13KO7 overnight at 37° C. with shaking. After spinning down the pellet, the phage supernatant was diluted 1:1 with 2 nM hu-CD96, 20 nM cy-CD96 and ELISA buffer (0.5% BSA and 0.05% TWEEN®20 in PBS) in total […] and incubated for two hours at room temperature with agitation. The […] of mixture was transferred to hu-CD96 coated plate for 15 min to capture unbound phage. The plate was washed with wash buffer (0.05% TWEEN®20 in PBS), and HRP-conjugated anti-M13 antibody (Sino biological, Cat #11973-MM05-H-50) was added in ELISA buffer for 30 min. […] Enzymatic color development was stopped using TMB stop solution (VWR, Cat #95059-200). Plates were analyzed with a SpectraMax i3X plate reader (Molecular Devices). The % inhibition was calculated by the $OD450$ of wells with hu-CD96/cy-CD96 competitor divided by $OD450$ of wells with buffer alone. The lower % inhibition indicated higher phage $IC50$ against hu-CD96 or cy-CD96.
(§3) Selected top inhibition % phage variants from single spot competition were purified from culture supernatants. The optimal phage concentration was incubated with serially-diluted hu-CD96 or cy-CD96 in ELISA buffer in NUNC F plate for two hours. The […] of the mixture was transferred to hu-CD96 coated wells for 15 min to capture unbound phage. The plate was washed with wash buffer (0.05% TWEEN®20 in PBS), and HRP-conjugated anti-M13 antibody (Sino biological, Cat #11973-MM05-H-50) was added in ELISA buffer for 30 min. The plates were washed and developed as described above. The absorbance at 450 nm was plotted as a function of antigen concentration in solution to determine phage $IC50$.
A general note: In an ELISA, binding on a coated surface is turned into a signal by an enzyme label.
Regarding B1, the IC50 was determined as 0.16 nM.
Same read-out and setting: with B2 the figure was 0.19 nM; with B3, 0.1 nM.
The same measure, in the same setting: as for B4, the figure is 0.23 nM.
On the same count and under the same terms, as for B5, the figure is 0.2 nM; as for B6, 0.1 nM; as for B7, 0.15 nM.
With B8, the 50% inhibitory concentration (IC50) is 0.19 nM.
Same read-out and setting: with B9 the figure was 0.17 nM.
The same measure, in the same setting: as for B10, the figure is 0.23 nM.
The same measure, in the same setting: with B11 the figure was 0.1 nM.

The next test addresses T2, cy-CD96 (soluble, extracellular domain). The test is described as above. The procedure:
as §2, §3
B1 came in with an IC50 of 0.15 nM.
Same read-out and setting: as for B2, the figure is 1.85 nM; as for B3, 1.6 nM; as for B4, 0.24 nM.
With B5, the IC50 worked out at 0.6 nM.
B6 gave an IC50 of 0.9 nM. Compared with the last molecule, the IC50 is about 1.5-fold higher.
Still for that read-out and setting: as for B7, the figure is 0.91 nM.
The same measure, in the same setting: as for B8, the figure is 0.76 nM.
Same read-out and setting: with B9 the figure was 0.45 nM.
B10 yielded a 50% inhibitory concentration (IC50) of 0.84 nM.
For B11, the 50% inhibitory concentration (IC50) stood at 1 nM.

By Kd is commonly meant a measure of binding affinity in units of concentration. A lower Kd goes with a tighter complex. By IC50 is commonly meant the midpoint of a concentration-inhibition curve. Lower therefore signals greater potency in that assay.
